Reference: patent US20050266009A1 (SAVIENT PHARMACEUTICALS, published 2005)
Changes are numbered by the printed parent chain. Each block holds one binder with its values, some of them ahead of it.

How the values were obtained:
[1] = target: T1, GPIb on human platelets (human, UniProt P07359 17-652); assay: FACS on human platelets
T1 construct: whole, on cells; also called GPIbα; platelet GPIb

[2] = target: T2, GPIb on guinea pig platelets (guinea pig); assay: FACS on guinea pig platelets
T2 construct: whole, on cells; also called guinea pig derived platelets

T1 sequence (P07359 17-652): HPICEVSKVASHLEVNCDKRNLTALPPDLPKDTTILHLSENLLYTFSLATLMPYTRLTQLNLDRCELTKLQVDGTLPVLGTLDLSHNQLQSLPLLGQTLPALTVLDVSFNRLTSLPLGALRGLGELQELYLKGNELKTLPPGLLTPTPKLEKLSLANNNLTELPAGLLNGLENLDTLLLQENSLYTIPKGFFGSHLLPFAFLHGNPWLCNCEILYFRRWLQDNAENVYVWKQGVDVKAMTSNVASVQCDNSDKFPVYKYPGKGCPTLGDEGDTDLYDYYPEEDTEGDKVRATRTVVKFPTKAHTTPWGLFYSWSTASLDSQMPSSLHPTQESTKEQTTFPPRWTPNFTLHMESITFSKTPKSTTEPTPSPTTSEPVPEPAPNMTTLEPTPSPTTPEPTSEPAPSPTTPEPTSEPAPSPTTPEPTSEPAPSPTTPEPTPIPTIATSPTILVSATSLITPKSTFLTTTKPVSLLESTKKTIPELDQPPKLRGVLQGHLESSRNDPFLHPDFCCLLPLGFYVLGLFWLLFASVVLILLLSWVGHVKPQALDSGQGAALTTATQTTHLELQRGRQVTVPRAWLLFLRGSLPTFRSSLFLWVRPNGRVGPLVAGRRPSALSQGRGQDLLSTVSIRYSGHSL

fold binding capacity relative to Y1 [1]: ~25 fold
B1: S1 scFv (scFv)
chain: EVQLVESGGGVVRPGGSLRLSCAASGFTFDLNPKVKHMWVRQAPGKGLEWVSGINWNGGSTGYADSVKGRFTISRDNAKNSLYLQMNSLRAEDTAVYYCARLRPPFLWGQGTLVTVSRGGGGSGGGGSGGGGSSELTQDPAVSVALGQTVRITCQGDSLRSYYASWYQQKPGQAPVLVIYGKNNRPSGIPDRFSGSSSGNTASLTITGAQAEDEADYYCNSRDSSGNHVVFGGGTKLTVLGAAAEQKLISEEDLNGAA

fold binding capacity relative to Y1 [2]: ~25 fold
B2: D1 scFv (scFv)
scFv: B1 chain with P104S, L107G
